According to US20230312702A1 (KINDRED BIOSCIENCES, published 2023):
Positions count from the first letter of the chain named. Several values for one entry are separate records, joined by “and”; a condition that tells them apart may be missing. Equal values may be shown once. Values belong to the binder of their own block, whether it stands above or below them.

What was measured:
[1] = biological target: equine IL31 fused to human Fc (equine; human); experiment: biolayer interferometry, biotinylated equine IL31 on the sensor, preliminary; biolayer interferometry, biotinylated equine IL31 on the sensor, preliminary; upper end of the range
[2] = biological target: T1, Canine IL31 with C-terminal polyHis tag (canine, biotinylated at primary amine groups (NHS-LC-Biotin) or at glycan groups (Biotin-LC-Hydrazide)); experiment: biolayer interferometry (Octet), canine IL31 (amine-conjugated-biotin) on streptavidin tips, 2:1 fit
T1 construct: the protein was collected from the supernatant of 293 or CHO-S cells; also called biotinylated canine IL31; canine IL31 (amine-conjugated-biotin); not shown: C-terminal poly-His tag
T1 chain: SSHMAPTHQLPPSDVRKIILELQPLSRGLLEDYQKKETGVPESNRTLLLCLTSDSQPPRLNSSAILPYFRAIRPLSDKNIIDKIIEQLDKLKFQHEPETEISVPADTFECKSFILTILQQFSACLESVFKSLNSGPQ
Experimental: (§1) The binding analysis was performed using a biosensor Octet as follows. Briefly, canine IL31 was biotinylated at primary amine groups using EZ-Link™ NHS-LC-Biotin (Thermo Scientific, Catalog No. 21336) or at glycan groups using EZ-Link™ Biotin-LC-Hydrazide (ThermoFisher Scientific, Catalog No. 21340) according to the manufacturer's instructions. The free unreacted biotin was removed from biotinylated IL31 by extensive dialysis. Biotinylated canine IL31 was captured on streptavidin sensor tips. The association of four different concentrations (400, 200, 66.6, and 33 nM) of chimeric and caninized M14 antibody and human and canine IL31 (amine-conjugated-biotin) and the association of 100 nM of caninized M14 antibody and canine IL31 (glycan-conjugated-biotin) was monitored for ninety seconds. Dissociation was monitored for 600 seconds. A buffer only blank curve was subtracted to correct for any drift. The data were fit to a 2:1 binding model using ForteBio™ data analysis software to determine the kₒₙ, koff, and the Kd. The buffer for dilutions and all binding steps was: 20 mM phosphate, 150 mM NaCl, pH 7.2.
(§2) Canine IL31 with C-terminal polyHis tag was expressed and purified from CHO-S cells. Human IL31 was obtained from Sino Biological and Streptavidin biosensors was obtained from ForteBio (Cat. #18-509).

[3] = biological target: T1, Canine IL31 with C-terminal polyHis tag; experiment: biolayer interferometry (Octet), canine IL31 (glycan-conjugated-biotin) on streptavidin tips, 100 nM antibody
Experimental: as §1, §2

GST_(S98-S144) = biological target: T2, GST_(S98-S144); experiment: immunoblot of GST-canine IL31 fusions expressed in E. coli, membrane probed with chimeric M14; anti-GST blot in Fig. 5B
T2 construct: also called 34.5KDa
T2 GST fusion protein: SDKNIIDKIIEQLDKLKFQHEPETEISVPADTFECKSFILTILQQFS
Text: (§3) To identify the canine IL31 epitope recognized by M14, multiple GST canine IL31 fragment fusion molecules were generated and proteins were expressed intracellularly in E. coli. After the GST fusion proteins were transferred to a membrane, chimeric M14 was used to probe the membrane. A positive signal resulted when the IL31 fragment contained the epitope.

GST_(A127-Q159) = biological target: T3, GST_(A127-Q159); experiment: as above
T3 construct: also called 31.1KDa
T3 GST fusion protein: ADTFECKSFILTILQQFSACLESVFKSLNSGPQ
Text: as §3

[4] = biological target: canine FcRn with a poly-His tag and canine B2M heterodimer complex (canine); experiment: SPR (Biacore T200) at pH 6.0, biotinylated FcRn/B2M immobilised, Fc as analyte
Sequence of canine FcRn with a poly-His tag and canine B2M heterodimer complex (canine) (chain, as listed by the source limits assumed, form in doubt, chain 1 of 2): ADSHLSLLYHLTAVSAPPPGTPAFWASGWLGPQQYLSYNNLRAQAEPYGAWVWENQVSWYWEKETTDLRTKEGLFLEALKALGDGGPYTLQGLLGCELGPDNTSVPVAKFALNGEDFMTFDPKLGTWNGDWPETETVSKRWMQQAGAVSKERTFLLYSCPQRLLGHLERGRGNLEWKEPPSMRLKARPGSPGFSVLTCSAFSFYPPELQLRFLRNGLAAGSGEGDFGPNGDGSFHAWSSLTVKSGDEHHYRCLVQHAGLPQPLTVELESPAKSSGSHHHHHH
Sequence of canine FcRn with a poly-His tag and canine B2M heterodimer complex (canine) (b2m, as listed by the source limits assumed, form in doubt, chain 2 of 2): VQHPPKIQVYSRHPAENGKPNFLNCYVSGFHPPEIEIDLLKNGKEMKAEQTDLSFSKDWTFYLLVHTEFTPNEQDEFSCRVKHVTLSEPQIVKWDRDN

Sequence of equine IL31 fused to human Fc (equine; human) (chain, as listed by the source limits assumed, form in doubt): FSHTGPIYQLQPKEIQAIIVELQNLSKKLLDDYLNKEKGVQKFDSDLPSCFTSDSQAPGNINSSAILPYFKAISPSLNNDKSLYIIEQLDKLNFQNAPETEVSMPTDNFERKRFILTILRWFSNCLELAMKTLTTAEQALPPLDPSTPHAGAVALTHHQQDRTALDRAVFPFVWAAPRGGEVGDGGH

B2: caninized M14 IgG-B (antibody, V domains shown)
VH: EVQLVESGPSLVKPGGSLRLTCSVTGDSITSGYWNWIRKFPGNKLEYMGYISYSGITDYNPSLKSRITISRDTSKNQYYLQLNSVTTEDTATYYCARYGNYGYAMDYWGQGTLVTVSS
VL: DIVMTQSPASLSVSLGQRATISCRASESVDTYGNSFMHWYQQKPGQSPKLLIYRASNLESGIPARFGGSGSGTDFTLTIDPVQADDVATYYCQQSYEDPWTFGGGTKLEIKR
notes: Caninized M14 on canine IgG-B with canine light chain constant region; also called caninized M14 antibody
Kd [2]: < 0.01 nM
Kd [3]: < 0.001 nM
koff [3]: < 1e-07 s⁻¹

B3: chimeric M14 (murine M14 VH and VL fused to canine IgG-B constant heavy chain and canine constant light chain) (antibody, V domains shown)
VH: B2 VH with V5Q, G15S, G16Q, S17T, R19S, T68S, S70T, L113S
VL: B2 VL with M4L, S12A, P44S, G72R, Q83E
notes: expressed in CHO cells, Protein A purified; also called chimeric M14 antibody
binding result (GST_(S98-S144)): no binding
binding result (GST_(A127-Q159)): no binding

B4: wild-type canine IgG-B Fc polypeptide (protein, not shown: small tags and cut ends)
chain: PAPEMLGGPSVFIFPPKPKDTLLIARTPEVTCVVVDLDPEDPEVQISWFVDGKQMQTAKTQPREEQFNGTYRVVSVLPIGHQDWLKGKQFTCKVNNKALPSPIERTISKARGQAHQPSVYVLPPSREELSKNTVSLTCLIKDFFPPDIDVEWQSNGQQEPESKYRTTPPQLDEDGSYFLYSKLSVDKSRWQRGDTFICAVMHEALHNHYTQESLSHSPGK
koff [4]: 0.122 s⁻¹

B8: variant canine IgG-B Fc polypeptide L(23)M (protein, not shown: small tags and cut ends)
chain: B4 chain with L23M
koff [4]: 0.126 s⁻¹

Other lines, results leading:

Kd [1]: < 50 nM
B1: monoclonal antibody M14 (mouse antibody clone M14) (antibody, V domains shown)
VH: B2 VH with V5Q, G15S, G16Q, S17T, R19S, T68S, S70T, L113S
VL: DIVLTQSPASLAVSLGQRATISCRASESVDTYGNSFMHWYQQKSGQSPKLLIYRASNLESGIPARFGGSGSRTDFTLTIDPVEADDVATYYCQQSYEDPWTFGGGTKLEIK

koff [4]: 0.0631 s⁻¹ and 0.0847 s⁻¹
B5: variant canine IgG-B Fc polypeptide L(23)F (protein, not shown: small tags and cut ends)
chain: B4 chain with L23F

koff [4]: 0.0138 s⁻¹
B6: variant canine IgG-B Fc polypeptide L(23)Y (protein, not shown: small tags and cut ends)
chain: B4 chain with L23Y

koff [4]: 0.241 s⁻¹
B7: variant canine IgG-B polypeptide L(23)S (protein, not shown: small tags and cut ends)
chain: B4 chain with L23S
